Measurements published in US12329814B2, “Combination of a substance modulating tumor immune microenvironment and immunotherapy for the treatment of cancer” (Boostimmune, Inc., priority 2022, dated 2025).
Each block holds one molecule with its values, some of them ahead of it.

Assays:
extracellular TCTP = biological target: T1, extracellular TCTP (Mus musculus, UniProt P63028); assay: Cxcl1 mRNA in peritoneal exudate cells stimulated with SL4 conditioned supernatant (RT-qPCR); type: cell-based; details: PECs stimulated 2 hours with conditioned supernatant of SL4 cells containing antibody, vs control IgG; FIG. 6A
T1 construct: stimulated with conditioned supernatant of SL4 cells containing antibody 55F3 or control IgG; endogenous in cells; host or cells: SL4 mouse colon carcinoma cells (conditioned supernatant), applied to mouse peritoneal exudate cells
T1 sequence (P63028 1-172): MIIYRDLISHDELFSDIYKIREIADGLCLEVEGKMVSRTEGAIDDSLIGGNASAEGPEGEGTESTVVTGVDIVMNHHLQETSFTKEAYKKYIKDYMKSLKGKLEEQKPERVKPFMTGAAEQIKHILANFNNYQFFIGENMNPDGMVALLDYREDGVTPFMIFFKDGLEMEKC
Procedure: (§1) Peritoneal exudate cells (PECs) (2×10^5 cells) were stimulated with conditioned supernatant of SL4 cells containing antibody 55F3 or control IgG, and after 2 hours of stimulation, Cxcl1 mRNA levels were determined by RT-qPCR. As a result of blockade of extracellular TCTP with antibody 55F3, the expression of Cxcl1 mRNA was suppressed (FIG. 6A). Subsequently, SL4 cells were transplanted into C57BL/6 mice via subcutaneous injection, and 55F3 or control IgG (200 μg/mouse) was then intraperitoneally administered to the mice every other day, starting from Day 1 after the transplantation, and the volume of the tumor was measured. As a result, the proliferation speed of SL4 tumor cells was decreased by administration of 55F3 (FIG. 6B), and the amount of PMN-MDSCs in the TIME was decreased (FIG. 6C).

SL4 tumor cells = assay: SL4 subcutaneous tumor in C57BL/6 mice treated with anti-TCTP antibody; type: in vivo; details: 200 μg/mouse intraperitoneally every other day from Day 1, vs control IgG
Procedure: as §1

[1] = system: SL4 TCTP KO+hTCTP tumor cells; assay: TCTP KI SL4 (TCTP KO+hTCTP) subcutaneous tumor in C57BL/6 mice treated with anti-TCTP antibodies; type: in vivo; details: 100 μg intraperitoneally on days 1, 4, 8, 11, vs PBS; FIG. 7
Procedure: HEK293Ta cells (3×10^6 cells) were transfected with pCSII-EF-MCS-IRES2-Venus-hTCTP lentiviral expression vector and its helper vectors (pMDLg/p.RRE and pCMV-VSV-G-RSV-Rev). After 48 hours of the transfection, culture supernatants were collected and filtered (0.45 μm; Millipore). TCTP KO SL4 cells from Example 1 (1×10^6 cells) were infected using the supernatant. After infection, GFP-positive human TCTP-expressing TCTP KO SL4 cells (hereafter TCTP KI SL4 cells) were sorted using FACSMelody cell sorter. TCTP KI SL4 cells (2×10^5 cells/100 μL PBS), TCTP KO SL4 cells (2×10^5 cells/100 μL PBS), or parental SL4 cells (2×10^5 cells/100 μL PBS) were inoculated into C57BL/6 mice. After cell inoculation, tumor volumes were measured over time.
TCTP KI SL4 cells (TCTP KO+hTCTP; 5×10^5 cells in 100 μL PBS) from example 3 were subcutaneously inoculated into C57BL/6 mice (Day 0). Anti-TCTP (100 μg in 100 μL PBS) antibodies were administered intraperitoneally into the mice on days 1, 4, 8, and 11. As a control, 100 μL of PBS was administered. Tumor size was measured on days 3, 6, 9, and 11. As a result, the proliferation speed of SL4 TCTP KO+hTCTP tumor cells was decreased by administration of 55F3 or 1-2-4 (FIG. 7).

B16F10 cells = assay: B16F10 tumor treated with anti-TCTP antibody in combination with anti-PD-1 antibody; type: in vivo, C57BL/6 mice; details: anti-TCTP 100 μg i.p. days 1, 4, 8, 11, 15, 18, 22 plus anti-PD-1 (BioXCell) 100 μg i.v. day 10, compared with checkpoint antibody alone, FIGS. 9A and 9B
Procedure: The influence of the combination of anti-TCTP antibodies with an anti-PD-1 antibody on tumor suppression was also studied. B16F10 (1×10^5 cells in 50 μL PBS) cells were subcutaneously inoculated into C57BL/6 mice (Day 1). An anti-PD-1 antibody (BioXCell; 100 μg in 100 μL PBS) was administered intravenously ten days after the inoculation, and anti-TCTP antibodies 55F3 and 1-2-4 (each 100 μg in 100 μL PBS) were administered intraperitoneally in the mice on days 1, 4, 8, 11, 15, 18, and 22. As a result, the effect of suppressing tumor proliferation is improved by the combined administration of an anti-TCTP antibody and a PD-1 or CTLA-4 antagonist antibody, compared with the case of single administration of a PD-1 or CTLA-4 antagonist antibody alone (FIGS. 9A and 9B).

SL4 cells = assay: SL4 tumor treated with anti-TCTP antibody in combination with anti-PD-1 antibody; type: in vivo, C57BL/6 mice; details: 55F3 i.p. every day from Day 1 plus anti-PD-1 monoclonal antibody (BioLegend) day 10, compared with PD-1 antagonist antibody alone, FIG. 10
Procedure: This synergistic effect was also confirmed in the experiment using SL4 cells. SL4 cells were transplanted into C57BL/6 mice via subcutaneous injection, and thereafter, antibody 55F3 was intraperitoneally […] into the mice every day, starting from Day 1 after the transplantation. Ten days after the transplantation, an anti-PD-1 monoclonal antibody (BioLegend) was administered to the mice, and the tumor volume was then measured. As a result, it was confirmed that the effect of suppressing tumor proliferation is improved by the combined administration of an anti-TCTP antibody and a PD-1 antagonist antibody, compared with the case of single administration of a PD-1 antagonist antibody alone (FIG. 10).

B16F10 tumors = assay: Flow cytometry of tumor-infiltrating immune cells, B16F10 tumors, anti-TCTP and anti-PD-1 antibodies; type: in vivo, C57BL/6 mice; details: B16F10, 12 days; 55F3 200 μg i.p. every 2 days and/or anti-PD-1 RMP1-14 10 mg/kg i.p. days 0, 3, 7, 10, 14; FIG. 11C
Procedure: (§2) Effect of the combination of anti-TCTP antibody and anti-PD-1 antibody on T cells and NK cells in the TIME was also studied. Tumor-infiltrating immune cells were collected from B16F10 and MC38 tumors treated with anti-TCTP antibody and/or anti-PD-1 antibody and were then analyzed by flow cytometry. B16F10 cells (5×10^5 cells) or MC38 cells (3×10^5 cells) were transplanted subcutaneously into C57BL/6 mice. Anti-PD-1 antibody RMP1-14 (BioXCell; 10 mg/kg) was administered intraperitoneally on days 0, 3, 7, 10, 14 after the inoculation, and anti-TCTP antibody 55F3 (200 μg in 200 μL PBS) was administered intraperitoneally in the mice every 2 days after the inoculation. After 15 days (MC38) or 12 days (B16F10) of transplantation, single cell suspensions were prepared from tumors and subjected to flow cytometry analysis.

MC38 tumors = assay: Flow cytometry of tumor-infiltrating immune cells, MC38 tumors, anti-TCTP and anti-PD-1 antibodies; type: in vivo, C57BL/6 mice; details: MC38, 15 days; 55F3 200 μg i.p. every 2 days and/or anti-PD-1 RMP1-14 10 mg/kg i.p. days 0, 3, 7, 10, 14; FIG. 11C
Procedure: as §2

expression of Cxcl1 mRNA (extracellular TCTP): suppressed
B1: 55F3: Mouse monoclonal anti-TCTP antibody; VH SEQ ID NO: 25, VL SEQ ID NO: 29; CDRs SEQ ID NO: 1-6 (antibody, listed as Mus musculus)
VH: MRVLILLWLFTAFPGILSDVQLQESGPGLVKPSQSLSLTCTATGYSIASDYAWNWIRQFPGNKLEWMGYINYSGSTGYNPSLKSRISITRDTSKNQFFLQLNSVTTEDTATYYCARFEAGYWGQGTTLTVSSAKTTPPSVYPLAPGSAAQTNSMVTLGCLVKGYFPEPVT
VL: MDMRTPAQFLGILLLWFPGIKCDIKMTQSPSSMSASLGERVTITCKASQDINRYLSWFQQKPGKSPKTLIYRANRLVDGVPSRFSGSGSGQDYSLTISSLEYGDMGIYYCLQYNEFPLTFGAGTKLELKRADAAPTVSIFPPSSEQLTSGGASVVCFLN
proliferation speed of SL4 tumor cells (tumor volume) (SL4 tumor cells; FIG. 6B): decreased | amount of PMN-MDSCs in the TIME (SL4 tumor cells; SL4 tumor, FIG. 6C): decreased | proliferation speed of SL4 TCTP KO+hTCTP tumor cells (tumor size) [1]: decreased | effect of suppressing tumor proliferation, combined administration with anti-PD-1 antibody (B16F10 cells): improved | effect of suppressing tumor proliferation, combined administration with anti-PD-1 antibody (SL4 cells): improved | CD8+ cells in tumor (abundance ratio) (B16F10 tumors): increased | CD8+ cells in tumor (abundance ratio) (MC38 tumors): increased

B2: 1-2-4: Human monoclonal anti-TCTP antibody from CAMOUSE; VH SEQ ID NO: 28, VL SEQ ID NO: 32; CDRs SEQ ID NO: 19-24 (antibody, V domains shown)
VH: MDWTWRILFLVAAATGAHSQVQLVQSGAEVKKPGASVKVSCKASGYTFFSYAMHWVRQAPGQRLEWMGWINAGNGNTKYSQKFQDRVTITRDTSATTAYMELSSLRSEDTAVYYCASWVFDYWGQGTPVTVSS
VL: MRLLAQLLGLLMLWVPGSSGDIVMTQTPLSSLVTLGQPASISCRSSQSLVHRDGNTYLSWLQQRPGQPPRLLIYKISNRFFGVPDRFSGSGAGTDFTLKISRVEAEDVGVYYCMQATQFPHTFGQGTKLEIK
modifications: Variable region of antibody
proliferation speed of SL4 TCTP KO+hTCTP tumor cells (tumor size) [1]: decreased | effect of suppressing tumor proliferation, combined administration with anti-PD-1 antibody (B16F10 cells): improved
